Experimental data from article PMC4837482, “The complex binding mode of the peptide hormone H2 relaxin to its receptor RXFP1” (Nature Communications, 2016).
Positions count from the first letter of the chain named. Values belong to the molecule of their own block, whether it stands above or below them.

Tests used:
RXFP1 G41D42-AA = molecular target: T1, RXFP1 G41D42-AA (Homo sapiens, UniProt Q9HBX9, D64A/G63A); experiment: Eu-H2 relaxin saturation binding assay, transfected HEK293T cells; details: construct G41D42-AA, maximum H2 concentration 15 nM
T1 construct: transiently transfected human embryonic kidney (HEK) 293T cells expressing full-length RXFP1 and mutants; expressed in transfected cells; host or cells: HEK293T
T1 sequence (Q9HBX9 23-757 G63A/D64A limits assumed): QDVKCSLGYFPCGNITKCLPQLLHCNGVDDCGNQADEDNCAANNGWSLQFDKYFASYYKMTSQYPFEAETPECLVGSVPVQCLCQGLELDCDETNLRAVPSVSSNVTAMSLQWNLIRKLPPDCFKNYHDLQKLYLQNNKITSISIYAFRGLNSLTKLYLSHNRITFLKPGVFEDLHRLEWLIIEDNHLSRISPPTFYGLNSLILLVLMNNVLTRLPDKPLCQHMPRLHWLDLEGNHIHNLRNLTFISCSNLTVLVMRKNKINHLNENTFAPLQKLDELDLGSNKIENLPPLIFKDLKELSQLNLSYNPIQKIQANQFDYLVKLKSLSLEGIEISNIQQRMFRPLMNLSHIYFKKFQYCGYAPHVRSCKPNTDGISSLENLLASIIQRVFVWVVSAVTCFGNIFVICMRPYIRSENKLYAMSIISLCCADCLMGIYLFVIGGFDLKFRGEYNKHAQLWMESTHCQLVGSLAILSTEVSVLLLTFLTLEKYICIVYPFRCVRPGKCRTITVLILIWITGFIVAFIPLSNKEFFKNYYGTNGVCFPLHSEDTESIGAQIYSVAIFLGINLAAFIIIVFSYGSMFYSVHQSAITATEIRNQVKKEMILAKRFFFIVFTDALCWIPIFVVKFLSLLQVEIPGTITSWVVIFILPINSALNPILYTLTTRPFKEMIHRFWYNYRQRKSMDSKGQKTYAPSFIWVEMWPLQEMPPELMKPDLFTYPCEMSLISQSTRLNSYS

RXFP1(1–72) = molecular target: T2, RXFP1(1–72) (Homo sapiens, UniProt Q9HBX9); experiment: NMR competition titration against the RXFP1(1–72)/Mn2+-DTPA-(A)-H2 complex; type: binding; details: 50 μM peptide added to 50 μM 15N-RXFP1(1–72) with 0.2 μM Mn2+-DTPA-(A)-H2; pH 6.8, 25 °C
T2 construct: GB1 (N, cleaved yes); made in house; host or cells: E. coli BL21 (DE3) trxB
T2 sequence (Q9HBX9 23-94 limits assumed): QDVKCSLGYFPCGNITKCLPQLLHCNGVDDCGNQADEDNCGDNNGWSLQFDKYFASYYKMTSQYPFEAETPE
Experimental: All RXFP1(1–72) protein samples for nuclear magnetic resonance (NMR) experiments were prepared from lyophilized protein in 50 mM imidazole, with 10 mM CaCl2 at pH 6.8. Recombinant human gene-2 H2 relaxin peptide was kindly provided by Corthera. EL1^(475–486)/EL2-GB1 samples were prepared as described above. Titrant and titrand were dialyzed in the same buffer in the same vessel. All NMR experiments were routinely collected at 25 °C on a 700-MHz Bruker Avance HDIII spectrometer equipped with triple resonance cryoprobe. […] Backbone assignments were made from 3D HNCACB, HNCOCACB, HNCO and HNCACO experiments. Spectra were processed using NMRPipe (ref. [43]) and typically Fourier-transformed after applying Lorentz-to-Gauss window functions in the direct dimension and cosine bells in the indirect dimensions. NMR data were analysed using SPARKY (Goddard, T.D. and Kneller, D.G., University of California, San Francisco). Assignments of the mutant RXFP1(1–72) proteins were determined from the assignments of wild-type RXFP1(1–72).
^15N{^1H}-NOE experiments[45] (2,048 × 256 data points) were acquired with a saturation pulse of 4 s and an additional relaxation delay of 5 s. Sample conditions were 150 μM RXFP(1–72) or mutants either without or with 450 μM H2 relaxin. Binding to Mn^2+-DTPA-(A)-H2 to RXFP1(1–72) and mutants was monitored by recording 2D ^1H-^15N HSQC (2,048 × 256 data points) for 0.2 μM Mn^2+-DTPA-(A)-H2 against 50 μM RXFP1(1–72). H2 relaxin and its truncates such as A-chain (9–24), H2/I5 chimera and Phe23Ala A-chain mutant H2 were titrated into a complex of 50 μM RXFP1(1–72) and 0.2 μM Mn^2+-DTPA-(A)-H2 with increasing concentrations ranging from 5 to 50 μM.

[1] = molecular target: T3, RXFP1 G41A/D42A, full length (human); experiment: cell-based or functional assay
T3 chain: T1 sequence (Q9HBX9 23-757 G63A/D64A limits assumed)

[2] = molecular target: T4, RXFP1 G45A/W46A, full length (human); experiment: cell-based or functional assay
T4 chain: T1 sequence (Q9HBX9 23-757 G63A/D64A limits assumed) with A41G, A42D, G45A, W46A

Molecule: H2 relaxin: two-chain 6-kDa peptide hormone structurally related to insulin; recombinant human gene-2 H2 relaxin provided by Corthera
Kd (RXFP1 G41D42-AA): > 20 nM | competition with Mn2+-DTPA-(A)-H2 for RXFP1(1–72) (peak intensities, chemical shifts) (RXFP1(1–72)): reappearance of the broadened peaks

H2 relaxin-induced cAMP response (pCRE β-galactosidase reporter, HEK293T), pEC50 [1]: 7.26 pEC50 | H2 relaxin-induced cAMP response (pCRE β-galactosidase reporter, HEK293T), pEC50 [2]: < 6 pEC50
B1: H2 relaxin (ligand, human)
chain 1: QLYSALANKCCHVGCTKRSLARFC
chain 2: DSWMEEVIKLCGRELVRAQIAICGMSTWS
